Substitutions are numbered along the chain they refer to.
B1: IgG1-F1114 (antibody)
heavy: QVQLQESGPGLVKPSETLSLTCAVSGHSISHDHAWSWVRQPPGEGLEWIGFISYSGITNYNPSLQGRVTISRDNSKNTLYLQMNSLRAEDTAVYYCARSLARTTAMDYWGEGTLVTVSSASTKGPSVFPLAPSSKSTSGGTAALGCLVKDYFPEPVTVSWNSGALTSGVHTFPAVLQSSGLYSLSSVVTVPSSSLGTQTYICNVNHKPSNTKVDKKVEPKSCDKTHTCPPCPAPELLGGPSVFLFPPKPKDTLYISRTPEVTCVVVDVSHEDPEVKFNWYVDGVEVHNAKTKPREEQYNSTYRVVSVLTVLHQDWLNGKEYKCKVSNKALPAPIEKTISKAKGQPREPQVYTLPPSRDELTKNQVSLTCLVKGFYPSDIAVEWESNGQPENNYKTTPPVLDSDGSFFLYSKLTVDKSRWQQGNVFSCSVMHEALHYHVTQKQLSLSP
light: not shown
notes: EU numbering; copies: 2 + 2
B2: IgG1-F1178 (antibody)
heavy: B1 heavy with Y254M, V261I, V310F, M430L, Y436N, V438Y, Q442S
light: not shown
notes: EU numbering; copies: 2 + 2
B3: IgG1-F1197 (antibody)
heavy: B1 heavy with S256T, Q440R, Q442E
light: not shown
notes: EU numbering; copies: 2 + 2
B4: IgG1-F1137 (antibody)
heavy: B1 heavy with L237R, S241K, V424S, S426R, Q442S
light: not shown
notes: EU numbering; copies: 2 + 2
B5: IgG1-F1135 (antibody)
heavy: B1 heavy with L237R, S241K, Q442E
light: not shown
notes: EU numbering; copies: 2 + 2
B6: IgG1-F1125 (antibody)
heavy: B1 heavy with T309Q, Q442S
light: not shown
notes: EU numbering; copies: 2 + 2
B7: IgG1-F1165 (antibody)
heavy: B1 heavy with P240D, T252Y, T309Q, V310P, Q313A, Q442S
light: not shown
notes: EU numbering; copies: 2 + 2
B8: IgG1-F1151 (antibody)
heavy: B1 heavy with L237R, S241K, S426N, V438Y, Q442S
light: not shown
notes: EU numbering; copies: 2 + 2
B9: IgG1-F1148 (antibody)
heavy: B1 heavy with L237R, S241K, T309Q, Q313A, V438Y, Q440R, Q442E
light: not shown
notes: EU numbering; copies: 2 + 2
B10: IgG1-F1154 (antibody)
heavy: B1 heavy with L237R, S241K, T252V, T309Q, V310P, Q313A, S426N, Q442S
light: not shown
notes: EU numbering; copies: 2 + 2
B11: IgG1-F1195 (antibody)
heavy: B1 heavy with Q440R, Q442E, L443A
light: not shown
notes: EU numbering; copies: 2 + 2
B12: IgG1-F1190 (antibody)
heavy: B1 heavy with H435E, Q440R, Q442E
light: not shown
notes: EU numbering; copies: 2 + 2
B13: IgG1-F1115 (antibody)
heavy: B1 heavy with S426N, Q442S
light: not shown
notes: EU numbering; copies: 2 + 2
B14: IgG1-F1147 (antibody)
heavy: B1 heavy with T309Q, Q313A, V438Y, Q440R, Q442E
light: not shown
notes: EU numbering; copies: 2 + 2
B15: IgG1-F1194 (antibody)
heavy: B1 heavy with Q440R, K441D, Q442E
light: not shown
notes: EU numbering; copies: 2 + 2
B16: IgG1-F1162 (antibody)
heavy: B1 heavy with P240D, T252Y, Q442S
light: not shown
notes: EU numbering; copies: 2 + 2
B17: IgG1-F1146 (antibody)
heavy: B1 heavy with L237R, S241K, T252V, T309Q, Q313A, Q440R, Q442E
light: not shown
notes: EU numbering; copies: 2 + 2
B18: IgG1-F1139 (antibody)
heavy: B1 heavy with L237R, S241K, S426N, Q442S
light: not shown
notes: EU numbering; copies: 2 + 2
B19: IgG1-F1157 (antibody)
heavy: B1 heavy with V438Y, Q440R, Q442E
light: not shown
notes: EU numbering; copies: 2 + 2
B20: IgG1-F1160 (antibody)
heavy: B1 heavy with Y254M, V310F, S426N, V438Y, Q442S
light: not shown
notes: EU numbering; copies: 2 + 2
B21: IgG1-F1142 (antibody)
heavy: B1 heavy with L237R, S241K, V424E, S426R, Q440R, Q442E
light: not shown
notes: EU numbering; copies: 2 + 2
B22: IgG1-F1191 (antibody)
heavy: B1 heavy with T439A, Q440R, Q442E
light: not shown
notes: EU numbering; copies: 2 + 2
B23: IgG1-F1158 (antibody)
heavy: B1 heavy with L237R, S241K, V438Y, Q440R, Q442E
light: not shown
notes: EU numbering; copies: 2 + 2
B24: IgG1-F1122 (antibody)
heavy: B1 heavy with T252V, T309Q, V310P, Q313A, Q440R, Q442S
light: not shown
notes: EU numbering; copies: 2 + 2
B25: IgG1-F1143 (antibody)
heavy: B1 heavy with L237R, S241K, V424S, S426R, Q440R, Q442E
light: not shown
notes: EU numbering; copies: 2 + 2
B26: IgG1-F1184 (antibody)
heavy: B1 heavy with Y254M, T309A, M430L, Y436S, V438Y, Q442S
light: not shown
notes: EU numbering; copies: 2 + 2
B27: IgG1-F1161 (antibody)
heavy: B1 heavy with Y254M, I334V, S426N, V438Y, Q442S
light: not shown
notes: EU numbering; copies: 2 + 2
B28: IgG1-F1185 (antibody)
heavy: B1 heavy with Y254M, T309A, E382A, M430L, Y436S, V438Y, Q442S
light: not shown
notes: EU numbering; copies: 2 + 2
B29: IgG1-F1196 (antibody)
heavy: B1 heavy with Q440R, Q442E, L443E
light: not shown
notes: EU numbering; copies: 2 + 2
B30: IgG1-F1121 (antibody)
heavy: B1 heavy with T252V, T309Q, V310P, Q313A, V424E, S426R, Q442S
light: not shown
notes: EU numbering; copies: 2 + 2
B31: IgG1-F1163 (antibody)
heavy: B1 heavy with P240D, T252Y, T309Q, Q313A, V438Y, Q442S
light: not shown
notes: EU numbering; copies: 2 + 2
B32: IgG1-F1153 (antibody)
heavy: B1 heavy with L237R, S241K, T252V, T309Q, Q313A, S426N, Q442S
light: not shown
notes: EU numbering; copies: 2 + 2
B33: IgG1-F1129 (antibody)
heavy: B1 heavy with T309Q, Q313H, Q442S
light: not shown
notes: EU numbering; copies: 2 + 2
B34: IgG1-F1144 (antibody)
heavy: B1 heavy with L237R, S241K, T252V, T309Q, V310P, Q313A, Q440R, Q442E
light: not shown
notes: EU numbering; copies: 2 + 2
B35: IgG1-F1183 (antibody)
heavy: B1 heavy with Y254M, E382A, M430L, Y436S, V438Y, Q442S
light: not shown
notes: EU numbering; copies: 2 + 2
B36: IgG1-F1152 (antibody)
heavy: B1 heavy with L237R, S241K, T309Q, Q313A, S426N, V438Y, Q442S
light: not shown
notes: EU numbering; copies: 2 + 2
B37: IgG1-F1133 (antibody)
heavy: B1 heavy with L237R, S241K, S426R, Q442S
light: not shown
notes: EU numbering; copies: 2 + 2
B38: IgG1-F1131 (antibody)
heavy: B1 heavy with L237R, S241K, V424E, Q442S
light: not shown
notes: EU numbering; copies: 2 + 2
B39: IgG1-F1117 (antibody)
heavy: B1 heavy with T252V, T309Q, Q313A, S426N, Q442S
light: not shown
notes: EU numbering; copies: 2 + 2
B40: IgG1-F1140 (antibody)
heavy: B1 heavy with V424E, S426R, Q440R, Q442E
light: not shown
notes: EU numbering; copies: 2 + 2
B41: IgG1-F1116 (antibody)
heavy: B1 heavy with T309Q, Q313A, S426N, V438Y, Q442S
light: not shown
notes: EU numbering; copies: 2 + 2
B42: IgG1-F1136 (antibody)
heavy: B1 heavy with L237R, S241K, V424E, S426R, Q442S
light: not shown
notes: EU numbering; copies: 2 + 2
B43: IgG1-F1141 (antibody)
heavy: B1 heavy with V424S, S426R, Q440R, Q442E
light: not shown
notes: EU numbering; copies: 2 + 2
B44: IgG1-F1134 (antibody)
heavy: B1 heavy with L237R, S241K, Q440R, Q442S
light: not shown
notes: EU numbering; copies: 2 + 2
B45: IgG1-F1126 (antibody)
heavy: B1 heavy with T309A, Q442S
light: not shown
notes: EU numbering; copies: 2 + 2
B46: IgG1-F1119 (antibody)
heavy: B1 heavy with T252V, T309Q, V310P, Q313A, V424E, Q442S
light: not shown
notes: EU numbering; copies: 2 + 2
B47: IgG1-F1132 (antibody)
heavy: B1 heavy with L237R, S241K, V424S, Q442S
light: not shown
notes: EU numbering; copies: 2 + 2
B48: IgG1-F1127 (antibody)
heavy: B1 heavy with Q313A, Q442S
light: not shown
notes: EU numbering; copies: 2 + 2
B49: IgG1-F1188 (antibody)
heavy: B1 heavy with Y254M, T309A, E382A, Y436H, V438Y, Q442S
light: not shown
notes: EU numbering; copies: 2 + 2
B50: IgG1-F1120 (antibody)
heavy: B1 heavy with T252V, T309Q, V310P, Q313A, S426R, Q442S
light: not shown
notes: EU numbering; copies: 2 + 2
B51: IgG1-F1145 (antibody)
heavy: B1 heavy with T252V, T309Q, Q313A, Q440R, Q442E
light: not shown
notes: EU numbering; copies: 2 + 2
B52: IgG1-F1128 (antibody)
heavy: B1 heavy with Q313H, Q442S
light: not shown
notes: EU numbering; copies: 2 + 2
B53: IgG1-F1198 (antibody)
heavy: B1 heavy with T258E, Q440R, Q442E
light: not shown
notes: EU numbering; copies: 2 + 2
B54: IgG1-F1130 (antibody)
heavy: B1 heavy with T309A, Q313A, Q442S
light: not shown
notes: EU numbering; copies: 2 + 2
B55: IgG1-F1123 (antibody)
heavy: B1 heavy with T252V, T309Q, V310P, Q313A, Q442E
light: not shown
notes: EU numbering; copies: 2 + 2
B56: IgG1-F1124 (antibody)
heavy: B1 heavy with T252V, T309Q, V310P, Q313A, Q440R, Q442E
light: not shown
notes: EU numbering; copies: 2 + 2
B57: IgG1-F1118 (antibody)
heavy: B1 heavy with T252V, T309Q, V310P, Q313A, S426N, Q442S
light: not shown
notes: EU numbering; copies: 2 + 2
B58: IgG1-F1199 (antibody)
heavy: B1 heavy with S256T, T258E, Q440R, Q442E
light: not shown
notes: EU numbering; copies: 2 + 2
B59: IgG1-F1138 (antibody)
heavy: B1 heavy with L237R, S241K, Q440R, Q442E
light: not shown
notes: EU numbering; copies: 2 + 2
B60: IgG1-F1164 (antibody)
heavy: B1 heavy with P240D, T252Y, T309Q, Q313A, Q442S
light: not shown
notes: EU numbering; copies: 2 + 2

molecular target: T1, soluble human FcRn complexed with β2-microglobulin (human, UniProt P61769 21-119, limits assumed); test: Biacore SPR, pH 7.0;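 also: test antibodies captured on a Protein L chip with human FcRn flowed over as analyte, KD obtained as the ratio of dissociation to association rate constants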
T1 construct: also called hFcRn

Kd | Binder
0.131 µM | B1
0.872 µM | B2
0.0946 µM | B3
0.158 µM | B4
0.126 µM | B5
0.0518 µM | B6
0.0163 µM | B7
0.251 µM | B8
0.0763 µM | B9
0.0134 µM | B10
0.176 µM | B11
0.24 µM | B12
0.135 µM | B13
0.0719 µM | B14
0.155 µM | B15
0.343 µM | B16
0.0624 µM | B17
0.152 µM | B18
0.209 µM | B19
0.288 µM | B20

Kd | Binder
0.187 µM | B21
0.211 µM | B22
0.244 µM | B23
0.0137 µM | B24
0.198 µM | B25
1 µM | B26
1.07 µM | B27
0.917 µM | B28
0.151 µM | B29
0.0104 µM | B30
0.154 µM | B31
0.0485 µM | B32
0.0448 µM | B33
0.0144 µM | B34
1.28 µM | B35
0.0738 µM | B36
0.158 µM | B37
0.129 µM | B38
0.0487 µM | B39
0.162 µM | B40

Kd | Binder
0.0744 µM | B41
0.163 µM | B42
0.177 µM | B43
0.166 µM | B44
0.0895 µM | B45
0.0103 µM | B46
0.14 µM | B47
0.0794 µM | B48
1.72 µM | B49
0.0104 µM | B50
0.0523 µM | B51
0.117 µM | B52
0.0783 µM | B53
0.0554 µM | B54
0.00955 µM | B55
0.0122 µM | B56
0.0132 µM | B57
0.0625 µM | B58
0.165 µM | B59
0.0696 µM | B60

Reference: patent publication US20200199241A1 (Chugai, published 2020)
